{"source": "the Human Domainome abundance scans (Beltran et al. 2025)", "parents": {"B1": {"name": "Zinc finger MYM-type protein 6, residues 427 to 504; numbered along this chain, O95789 (parent)", "chain": "KLKCQHCNHLFATKPELLFYKGKMFLFCGKNCSDEYKKKNKVVAMCDYCKLQKIIKETVRFSGVDKPFCSEVCKFLSA"}}, "note": "± gives the uncertainty stated by the source.", "data": [{"variants_of": "B1", "assay": "abundance fitness (aPCA) (normalised: wild type 0, dead -1); higher = more abundant; growth selection in yeast, the domain comes from the species named", "conditions": "Homo sapiens", "values": [{"variant": "KLKCQHCNHRFATKPELLFYKGKMFLFCGKNCSDEYKKKNKVVAMCDYCKLQKIIKETVRFSGVDKPFCSEVCKFLSA", "note": "[L10R]", "abundance fitness": "0.063 ± 0.029"}, {"variant": "KLKCQHCNHKFATKPELLFYKGKMFLFCGKNCSDEYKKKNKVVAMCDYCKLQKIIKETVRFSGVDKPFCSEVCKFLSA", "note": "[L10K]", "abundance fitness": "0.017 ± 0.039"}, {"variant": "KLKCQHCNHSFATKPELLFYKGKMFLFCGKNCSDEYKKKNKVVAMCDYCKLQKIIKETVRFSGVDKPFCSEVCKFLSA", "note": "[L10S]", "abundance fitness": "-0.066 ± 0.046"}, {"variant": "KLKCQHCNHLFATKPELLFYKGKMFLFCGKNCSDEYKKKNKVDAMCDYCKLQKIIKETVRFSGVDKPFCSEVCKFLSA", "note": "[V43D]", "abundance fitness": "-0.271 ± 0.37"}, {"variant": "KLKCQHCNHLFATKPELLFYKGKMFLFCGKNCSDEYKKKNKVVAMCDYCKLQKIIWETVRFSGVDKPFCSEVCKFLSA", "note": "[K56W]", "abundance fitness": "-0.16 ± 0.092"}, {"variant": "KLKCQHCNHLFATKIELLFYKGKMFLFCGKNCSDEYKKKNKVVAMCDYCKLQKIIKETVRFSGVDKPFCSEVCKFLSA", "note": "[P15I]", "abundance fitness": "-0.412 ± 0.16"}, {"variant": "KLKCQHCNHLFATKLELLFYKGKMFLFCGKNCSDEYKKKNKVVAMCDYCKLQKIIKETVRFSGVDKPFCSEVCKFLSA", "note": "[P15L]", "abundance fitness": "-0.483 ± 0.05"}, {"variant": "KLKCQHCNHLPATKPELLFYKGKMFLFCGKNCSDEYKKKNKVVAMCDYCKLQKIIKETVRFSGVDKPFCSEVCKFLSA", "note": "[F11P]", "abundance fitness": "-0.049 ± 0.037"}, {"variant": "KLKCQHCNHLFATKPELLFYKGKMFLFCGKNCDDEYKKKNKVVAMCDYCKLQKIIKETVRFSGVDKPFCSEVCKFLSA", "note": "[S33D]", "abundance fitness": "-0.217 ± 0.049"}, {"variant": "SLKCQHCNHLFATKPELLFYKGKMFLFCGKNCSDEYKKKNKVVAMCDYCKLQKIIKETVRFSGVDKPFCSEVCKFLSA", "note": "[K1S]", "abundance fitness": "-0.131 ± 0.076"}, {"variant": "KLKCQHCNHLFATKPELLFYKGKMKLFCGKNCSDEYKKKNKVVAMCDYCKLQKIIKETVRFSGVDKPFCSEVCKFLSA", "note": "[F25K]", "abundance fitness": "-0.067 ± 0.041"}, {"variant": "KLKCQHCNHLFATKPELLFYKGKMSLFCGKNCSDEYKKKNKVVAMCDYCKLQKIIKETVRFSGVDKPFCSEVCKFLSA", "note": "[F25S]", "abundance fitness": "-0.036 ± 0.038"}, {"variant": "KLKCQHCNHLFATKPEQLFYKGKMFLFCGKNCSDEYKKKNKVVAMCDYCKLQKIIKETVRFSGVDKPFCSEVCKFLSA", "note": "[L17Q]", "abundance fitness": "0.156 ± 0.054"}, {"variant": "KLKCQHCNHLFATKPELLFYKGKMFLFCGKNCSDEYKKKNKVVAMCDYCKLQKIIKETVRFSGVDKPDCSEVCKFLSA", "note": "[F68D]", "abundance fitness": "-0.35 ± 0.17"}, {"variant": "KLKCQHCNHLFATKPELLFYKGKMFLFCGKNCSDEYKKKNKVVAMCDYCKLQKIIKETVRFSGVDTPFCSEVCKFLSA", "note": "[K66T]", "abundance fitness": "-0.199 ± 0.33"}, {"variant": "KLKCQHINHLFATKPELLFYKGKMFLFCGKNCSDEYKKKNKVVAMCDYCKLQKIIKETVRFSGVDKPFCSEVCKFLSA", "note": "[C7I]", "abundance fitness": "-1.02 ± 0.48"}, {"variant": "KLKCQHCNHLFATKPELLFYKGKMFLHCGKNCSDEYKKKNKVVAMCDYCKLQKIIKETVRFSGVDKPFCSEVCKFLSA", "note": "[F27H]", "abundance fitness": "-0.405 ± 0.069"}, {"variant": "KLKCQHCNHLFATKPELLFYKGKMFLFCGKNCSDEYKKKNKVVAMCDYCRLQKIIKETVRFSGVDKPFCSEVCKFLSA", "note": "[K50R]", "abundance fitness": "-0.172 ± 0.074"}, {"variant": "KLKCQHCNHLFATKPELLFYKGKMFLFCGKNCSDEYKKKNKVVAMCDYCSLQKIIKETVRFSGVDKPFCSEVCKFLSA", "note": "[K50S]", "abundance fitness": "-0.422 ± 0.18"}, {"variant": "KLKCQHCNHLFATKPELLFYKGKMFLFCGKNCSDEYKKKNKVVAMADYCKLQKIIKETVRFSGVDKPFCSEVCKFLSA", "note": "[C46A]", "abundance fitness": "-0.479 ± 0.12"}, {"variant": "KLKCQHCNHLFATKPELLFYKGKMFLFCGKNCSDEYKKKNKVVAMCDYCKLQKLIKETVRFSGVDKPFCSEVCKFLSA", "note": "[I54L]", "abundance fitness": "0.128 ± 0.078"}, {"variant": "KLKCQHCNHLFATKPELLFYKGKMFLFCGKNCSDEYKKKNKVVAECDYCKLQKIIKETVRFSGVDKPFCSEVCKFLSA", "note": "[M45E]", "abundance fitness": "-0.051 ± 0.13"}, {"variant": "KLKCQHCNHLFATKPELLFYKGKMFLFCGKNCSDEYKKKNKVVAMCDYCKLQKIIKETVRFSGVDKWFCSEVCKFLSA", "note": "[P67W]", "abundance fitness": "-0.088 ± 0.19"}, {"variant": "KLKCQHCNHLFATKPELLFYKGKMFLFCGKNCSDEYKKKNKVVAMCDYCKLQKIIKETVRFSGVDKQFCSEVCKFLSA", "note": "[P67Q]", "abundance fitness": "0.296 ± 0.15"}, {"variant": "KLKCQHCNHLFATKPELLFYKGKMFLFCGKNCSDEYKKKNKVVAMCDYCKLQKIIKETVRFSGVDKLFCSEVCKFLSA", "note": "[P67L]", "abundance fitness": "-0.354 ± 0.14"}, {"variant": "KLKCQHCNHLFATKPELLFYKGKMFLFCGKNCSDEYKKKNKVVAMCDYCKLQKIIKETVRFSGVDKPFCSEKCKFLSA", "note": "[V72K]", "abundance fitness": "0.775 ± 0.19"}, {"variant": "KLKCQHCNHLFATKPELLFYKGKMFLFCGLNCSDEYKKKNKVVAMCDYCKLQKIIKETVRFSGVDKPFCSEVCKFLSA", "note": "[K30L]", "abundance fitness": "-0.061 ± 0.034"}, {"variant": "KLKCQHCNHLFATKPELLFYKGKMFLFCGGNCSDEYKKKNKVVAMCDYCKLQKIIKETVRFSGVDKPFCSEVCKFLSA", "note": "[K30G]", "abundance fitness": "-0.032 ± 0.029"}, {"variant": "KLKCQHCNHLFATKPELLFYKGKMFLFCGPNCSDEYKKKNKVVAMCDYCKLQKIIKETVRFSGVDKPFCSEVCKFLSA", "note": "[K30P]", "abundance fitness": "-0.107 ± 0.035"}, {"variant": "KLKCQHCNHLFATKPELLFYKGKMFLFCGKNCSDEYKKKNKVVAMCDYCKLQKIIKETVRFSGVDKPFGSEVCKFLSA", "note": "[C69G]", "abundance fitness": "-0.731 ± 0.097"}, {"variant": "KLKCQHCNHLFATKPELLFYKGKMFLFCGKNCSDEYKKKNKVVAMCDYCKLQKIIKETVRFSGVDKPFCSEVQKFLSA", "note": "[C73Q]", "abundance fitness": "-0.944 ± 0.32"}, {"variant": "KLKCQHCNHLFATKPELLFYKLKMFLFCGKNCSDEYKKKNKVVAMCDYCKLQKIIKETVRFSGVDKPFCSEVCKFLSA", "note": "[G22L]", "abundance fitness": "-0.231 ± 0.056"}, {"variant": "KLKCQHCTHLFATKPELLFYKGKMFLFCGKNCSDEYKKKNKVVAMCDYCKLQKIIKETVRFSGVDKPFCSEVCKFLSA", "note": "[N8T]", "abundance fitness": "-0.067 ± 0.064"}, {"variant": "KLKCQHCNHLFATEPELLFYKGKMFLFCGKNCSDEYKKKNKVVAMCDYCKLQKIIKETVRFSGVDKPFCSEVCKFLSA", "note": "[K14E]", "abundance fitness": "-0.053 ± 0.033"}, {"variant": "KLKCQHCNHLFATFPELLFYKGKMFLFCGKNCSDEYKKKNKVVAMCDYCKLQKIIKETVRFSGVDKPFCSEVCKFLSA", "note": "[K14F]", "abundance fitness": "-0.298 ± 0.046"}]}]}
